Assay results from patent US20260061022A1 (GI INNOVATION, published 2026).

What was measured:
IgE [1] = molecular target: T1, IgE (Homo sapiens (Human), UniProt P01854 1-427); assay: SPR, ProteOn XPR36, IgE coated on GLC chip, analyte flowed
T1 construct: also called immunoglobulin E
T1 constant: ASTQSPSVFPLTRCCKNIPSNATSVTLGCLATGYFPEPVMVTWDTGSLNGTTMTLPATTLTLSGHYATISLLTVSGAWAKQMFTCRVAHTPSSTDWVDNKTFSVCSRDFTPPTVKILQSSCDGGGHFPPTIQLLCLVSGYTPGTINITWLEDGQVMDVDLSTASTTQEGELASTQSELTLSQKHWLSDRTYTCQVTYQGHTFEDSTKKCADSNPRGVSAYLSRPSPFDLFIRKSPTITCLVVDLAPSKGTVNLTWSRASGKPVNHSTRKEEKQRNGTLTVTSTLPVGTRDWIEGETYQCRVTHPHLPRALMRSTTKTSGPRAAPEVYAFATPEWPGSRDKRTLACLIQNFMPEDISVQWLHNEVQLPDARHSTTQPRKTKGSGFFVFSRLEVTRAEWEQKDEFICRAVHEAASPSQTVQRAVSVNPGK
Experimental: (§1) Here, the experiments were conducted by identifying zero base using 25 mM NaOH as a regeneration buffer, and then repeating the above steps. Thereafter, a binding curve was identified using a protein binding analyzer (ProteOn XPR36, Bio-Rad Laboratories, Inc., USA).

human IgE = human IgE (human, UniProt P01854-1 1-428); assay: cell-based or functional assay
[2] = molecular target: IgE (Experimental Example 4); assay: cell-based or functional assay
[3] = molecular target: T2, IgG Fc gamma receptor IIIB (UniProt O75015 20-208, limits assumed); assay: BLI response at 4 uM, FcγRIIIB immobilised on AR2G biosensor
T2 construct: Bought recombinant protein immobilised on an AR2G biosensor; also called FcγRIIIB
Experimental: (§2) Specifically, FcγRI, FcγRIIA, FcγRIIB, FcγRIIIA, and FcγRIIIB recombinant proteins (R & D Systems Inc., 5 μg/ml) which are Fc gamma receptors were immobilized in 300 mM acetate buffer (pH 5) on the activated AR2G biosensor. As a running buffer, PBS containing 0.1% Tween-20 and 1% bovine serum was used. All measurements were carried out at 30° C. with a sample plate shaker at a rate of 1,000 rpm.

IgG Fc gamma receptor I = molecular target: T3, IgG Fc gamma receptor I (UniProt P12314 16-288); assay: BLI (Octet RED384), FcγRI immobilised on AR2G biosensor, IgETRAP in solution
T3 construct: Bought recombinant protein immobilised on an AR2G biosensor; also called FcγRI
Experimental: as §2

[4] = molecular target: T4, IgG Fc gamma receptor IIA (UniProt P12318 36-218, limits assumed); assay: BLI (Octet RED384), FcγRIIA immobilised on AR2G biosensor, IgETRAP in solution
T4 construct: Bought recombinant protein immobilised on an AR2G biosensor; also called FcγRIIA
T4 sequence (looked up): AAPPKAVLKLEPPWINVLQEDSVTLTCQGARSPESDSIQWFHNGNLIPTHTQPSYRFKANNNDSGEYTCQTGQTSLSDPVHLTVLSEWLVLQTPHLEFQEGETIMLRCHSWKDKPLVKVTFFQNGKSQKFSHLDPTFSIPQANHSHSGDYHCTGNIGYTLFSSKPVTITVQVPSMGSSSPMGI
Experimental: as §2

[5] = molecular target: T5, IgG Fc gamma receptor IIB (UniProt P31994 46-217, limits assumed); assay: BLI (Octet RED384), FcγRIIB immobilised on AR2G biosensor, IgETRAP in solution
T5 construct: Bought recombinant protein immobilised on an AR2G biosensor; also called FcγRIIB
T5 sequence (looked up): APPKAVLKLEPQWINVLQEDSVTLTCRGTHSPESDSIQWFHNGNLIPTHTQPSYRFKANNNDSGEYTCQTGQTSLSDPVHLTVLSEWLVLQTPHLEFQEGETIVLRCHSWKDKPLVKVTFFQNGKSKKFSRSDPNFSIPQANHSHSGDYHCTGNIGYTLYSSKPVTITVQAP
Experimental: as §2

IgE [6] = molecular target: T1, IgE; assay: SPR (ProteOn XPR36), IgE coated on the GLC sensor chip, IgETRAP flowed at 0, 3.2, 6.3, 12.5, 25 and 50 nM
IgE [7] = molecular target: T1, IgE; assay: kinetic binding measurement of Table 3, KD against omalizumab as reference; the end is tied to FcεRIαECD-Fc2ST by 'exhibits the highest IgE-binding affinity which is 69-fold higher than omalizumab'
Experimental: as §1

T2 sequence (O75015 20-208 limits assumed): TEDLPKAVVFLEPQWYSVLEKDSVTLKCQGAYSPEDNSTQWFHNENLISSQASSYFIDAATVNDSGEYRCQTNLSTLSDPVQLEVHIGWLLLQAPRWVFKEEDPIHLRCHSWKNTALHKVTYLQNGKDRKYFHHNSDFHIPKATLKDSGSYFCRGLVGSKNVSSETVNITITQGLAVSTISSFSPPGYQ
T3 sequence (P12314 16-288 limits assumed): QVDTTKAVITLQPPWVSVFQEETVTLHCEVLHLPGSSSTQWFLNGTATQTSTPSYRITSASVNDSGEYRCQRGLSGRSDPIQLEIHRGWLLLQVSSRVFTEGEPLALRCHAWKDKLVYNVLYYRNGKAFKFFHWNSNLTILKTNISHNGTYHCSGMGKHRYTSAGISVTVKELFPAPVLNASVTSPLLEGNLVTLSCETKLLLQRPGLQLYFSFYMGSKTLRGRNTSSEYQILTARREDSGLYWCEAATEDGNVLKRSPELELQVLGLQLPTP

B1: FcεRIαECD-Fc3 (Fc fusion)
chain: VPQKPKVSLNPPWNRIFKGENVTLTCNGNNFFEVSSTKWFHNGSLSEETNSSLNIVNAKFEDSGEYKCQHQQVNESEPVYLEVFSDWLLLQASAEVVMEGQPLFLRCHGWRNWDVYKVIYYKDGEALKYWYENHNISITNATVEDSGTYYCTGKVWQLDYESEPLNITVIKAPREKYWLQAQPQAEGSLAKATTAPATTRNTGRGGEEKKGSKEKEEQEERETKTPECPSHTQPLGVFLFPPKPKDTLMISRTPEVTCVVVDVSQEDPEVQFNWYVDGVEVHNAKTKPREEQFNSTYRVVSVLTVLHQDWLNGKEYKCKVSNKGLPSSIEKTISKAKGQPREPQVYTLPPSQEEMTKNQVSLTCLVKGFYPSDIAVEWESNGQPENNYKTTPPVLDSDGSFFLYSRLTVDKSRWQEGNVFSCSVMHEALHNHYTQKSLSLSLGK
notes: Made in CHO DG44 cells without the sialic acid transferase; Homodimer; also called polypeptide dimer
Q: B1 was tested. Which “fold better KD than omalizumab” value (IgE [1]) did it give?
A: Its value is 22 fold.

Q: And the “fold better kd than omalizumab” value (IgE [1])?
A: Its value is 45 fold.

Q: And the “fold weaker ka than omalizumab” value (IgE [1])?
A: The value was 2 fold.

B2: FcεRIαECD-Fc3ST (Fc fusion)
chain: VPQKPKVSLNPPWNRIFKGENVTLTCNGNNFFEVSSTKWFHNGSLSEETNSSLNIVNAKFEDSGEYKCQHQQVNESEPVYLEVFSDWLLLQASAEVVMEGQPLFLRCHGWRNWDVYKVIYYKDGEALKYWYENHNISITNATVEDSGTYYCTGKVWQLDYESEPLNITVIKAPREKYWLQAQPQAEGSLAKATTAPATTRNTGRGGEEKKGSKEKEEQEERETKTPECPSHTQPLGVFLFPPKPKDTLMISRTPEVTCVVVDVSQEDPEVQFNWYVDGVEVHNAKTKPREEQFNSTYRVVSVLTVLHQDWLNGKEYKCKVSNKGLPSSIEKTISKAKGQPREPQVYTLPPSQEEMTKNQVSLTCLVKGFYPSDIAVEWESNGQPENNYKTTPPVLDSDGSFFLYSRLTVDKSRWQEGNVFSCSVMHEALHNHYTQKSLSLSLGK
modifications: sialic acid added to the glycans by co-expressed α-2,6-sialic acid transferase
notes: Homodimer; also called FcεRIαECD-Fc3 + a2,6-ST; polypeptide dimer
Q: Which results are given for B2?
A: fold better KD than omalizumab (IgE [1]): 24 fold; fold better kd than omalizumab (IgE [1]): 40 fold; fold weaker ka than omalizumab (IgE [1]): 1.7 fold

B3: FcεRIαECD-Fc2ST (Fc fusion)
chain: VPQKPKVSLNPPWNRIFKGENVTLTCNGNNFFEVSSTKWFHNGSLSEETNSSLNIVNAKFEDSGEYKCQHQQVNESEPVYLEVFSDWLLLQASAEVVMEGQPLFLRCHGWRNWDVYKVIYYKDGEALKYWYENHNISITNATVEDSGTYYCTGKVWQLDYESEPLNITVIKAPREKYWLQRNTGRGGEEKKGSKEKEEQEERETKTPECPSHTQPLGVFLFPPKPKDTLMISRTPEVTCVVVDVSQEDPEVQFNWYVDGVEVHNAKTKPREEQFNSTYRVVSVLTVLHQDWLNGKEYKCKVSNKGLPSSIEKTISKAKGQPREPQVYTLPPSQEEMTKNQVSLTCLVKGFYPSDIAVEWESNGQPENNYKTTPPVLDSDGSFFLYSRLTVDKSRWQEGNVFSCSVMHEALHNHYTQKSLSLSLGK
modifications: sialic acid added to the glycans by co-expressed α-2,6-sialic acid transferase
notes: Homodimer; also called IgETRAP; FcεRIαECD-Fc2 + a2,6-ST
Q: Which “IC50, inhibition of β-hexosaminidase secretion by human FcεRI-expressing mouse bone marrow-derived mast cells” value (human IgE) does the source give for B3 here?
A: The value was roughly 0.0112 µg/mL.

Q: What about the “fold higher inhibitory ability on mast cell activity than Xolair” value (human IgE) of the same binder?
A: The value was 58 fold.

Q: And the “IC50 (read off the curve); inhibition ratio (%) of beta-hexosaminidase release from mouse bone marrow-derived mast cells, dimer pre-mixed with IgE at 1 ug/mL” value [2]?
A: Its value is roughly 0.5 µg/mL.

Q: What about the “fold better KD than omalizumab” value (IgE [1]) of the same binder?
A: Its value is 69 fold.

Q: And the “fold better kd than omalizumab” value (IgE [1])?
A: Its value is 106 fold.

Q: And the “fold weaker ka than omalizumab” value (IgE [1])?
A: Its value is 1.5 fold.

Q: Does B3 bind [3]?
A: Result: no binding (tested: 4 uM)

Q: Does B3 bind (IgG Fc gamma receptor I)?
A: Result: no binding (tested: 4 uM)

Q: Does B3 bind [4]?
A: Result: no binding (tested: 4 uM)

Q: Does B3 bind [5]?
A: Result: no binding (tested: 4 uM)

Q: What about the Kd (IgE [6]) of the same binder?
A: The Kd was 0.215 nM.

Q: And the “fold change of equilibrium dissociation constant (KD) against omalizumab (printed as 'higher'; meant as higher affinity)” value (IgE [7])?
A: Its value is 22 to 69 fold.

B4: FcεRIαECD-Fc2 (Fc fusion)
chain: VPQKPKVSLNPPWNRIFKGENVTLTCNGNNFFEVSSTKWFHNGSLSEETNSSLNIVNAKFEDSGEYKCQHQQVNESEPVYLEVFSDWLLLQASAEVVMEGQPLFLRCHGWRNWDVYKVIYYKDGEALKYWYENHNISITNATVEDSGTYYCTGKVWQLDYESEPLNITVIKAPREKYWLQRNTGRGGEEKKGSKEKEEQEERETKTPECPSHTQPLGVFLFPPKPKDTLMISRTPEVTCVVVDVSQEDPEVQFNWYVDGVEVHNAKTKPREEQFNSTYRVVSVLTVLHQDWLNGKEYKCKVSNKGLPSSIEKTISKAKGQPREPQVYTLPPSQEEMTKNQVSLTCLVKGFYPSDIAVEWESNGQPENNYKTTPPVLDSDGSFFLYSRLTVDKSRWQEGNVFSCSVMHEALHNHYTQKSLSLSLGK
notes: Made in CHO DG44 cells without the sialic acid transferase; Homodimer joined through the hinge cysteine; also called polypeptide dimer
Q: B4 was tested. Which “fold better KD than omalizumab” value (IgE [1]) did it give?
A: The value was 38 fold.

Q: And the “fold better kd than omalizumab” value (IgE [1])?
A: Its value is 73 fold.

Q: And the “fold weaker ka than omalizumab” value (IgE [1])?
A: Its value is 1.9 fold.
